Results published in patent publication US20240034813A1 (Janssen / Centocor, published 2024).

Assays:
[1] = molecular target: T1, recombinant cMet/HGFR with c-terminal His-tag, Cy5-labeled (UniProt P08581 25-932, limits assumed, Cy5 label (reacted with Cy5 Mono NHS Ester; sites not stated)); assay: competitive TR-FRET (Eu-amivantamab/Cy5-c-MET), EC50 ratio vs Reference Material; Ex. 11 drug product, 5 months at 5 C
T1 construct: Commercial protein; also called Cy5-c-MET; Cy5-labeled c-MET antigen; not shown: C-terminal His-tag
Excerpt: (§1) In this procedure, varying concentrations of unlabeled bispecific EGFR-cMet antibody sample compete with donor fluorophore (Europium (Eu) chelate) labeled bispecific EGFR-cMet antibody for binding to an acceptor fluorophore (Cy5)-labeled c-MET antigen. Excitation of the donor fluorophore results in a transfer of energy to the bound acceptor fluorophore (FRET process). The resultant FRET is detected by emission of light at 665 nm using a microplate reader capable of measuring time-resolved fluorescence. Sample dose response curves are compared to the Reference Material (RM).
(§2) c-MET Binding Materials and Methods. Certified commercial cMet, a recombinant cMet/HGFR with c-terminal His-tag is reacted with certified commercial Cy5 Mono NHS Ester to produce Cy5-labeled c-MET. Validated bispecific EGFR-cMet antibody is reacted with certified commercial Europium (Eu) chelate to produce Eu labeled bispecific EGFR-cMet antibody. […] Fluorescence is then measured by spectrophotometry at 665 nm, plotted against antibody concentration and analyzed by a four-parameter logistic model. The antibody concentration required to obtain half of the maximum fluorescence response (EC50) is determined for RM, assay control and samples. The potencies of assay control and samples are calculated based on the ratio of the sample (or control) and RM EC50 values and reported as a percentage activity relative to the RM.

[2] = molecular target: T1, recombinant cMet/HGFR with c-terminal …; assay: competitive TR-FRET (Eu-amivantamab/Cy5-c-MET), EC50 ratio vs Reference Material; Ex. 3 acetate formulation with PS80, T0
Excerpt: as §1, §2

[3] = molecular target: T2, recombinant human EGFR/ErbB1/HER1 with C-terminal His tag, Cy5-labeled (human, UniProt P00533 25-645, Cy5 label (reacted with Cy5 Mono NHS Ester; sites not stated)); assay: competitive TR-FRET (Eu-amivantamab/Cy5-EGFR), EC50 ratio vs Reference Material; Ex. 11 drug product, 0 months, 40 C table
T2 construct: Commercial protein; also called Cy5-EGFR; Cy5-labeled EGFR antigen; not shown: C-terminal His tag
Excerpt: as §1, with “EGFR” for “c-MET”, “RM.” for “Reference Material (RM).”
as §2, with “EGFR” for “c-MET”, “EGFR,” for “cMet,”, “human EGFR/ErbB1/HER1” for “cMet/HGFR”, “C-terminal His tag” for “c-terminal His-tag”, “EGFR.” for “c-MET.”, “Eu-labeled” for “Eu labeled”

[4] = molecular target: T1, recombinant cMet/HGFR with c-terminal …; assay: competitive TR-FRET (Eu-amivantamab/Cy5-c-MET), EC50 ratio vs Reference Material; Ex. 2 Formulation 3 (acetate), T0, 40 C table
Excerpt: as §1, §2

[5] = molecular target: T2, recombinant human EGFR/ErbB1/HER1 with …; assay: competitive TR-FRET (Eu-amivantamab/Cy5-EGFR), EC50 ratio vs Reference Material; Ex. 2 Formulation 3 (acetate), 3 months at 40 C
Excerpt: as §1, with “EGFR” for “c-MET”, “RM.” for “Reference Material (RM).”
as §2, with “EGFR” for “c-MET”, “EGFR,” for “cMet,”, “human EGFR/ErbB1/HER1” for “cMet/HGFR”, “C-terminal His tag” for “c-terminal His-tag”, “EGFR.” for “c-MET.”, “Eu-labeled” for “Eu labeled”

[6] = molecular target: T1, recombinant cMet/HGFR with c-terminal …; assay: competitive TR-FRET (Eu-amivantamab/Cy5-c-MET), EC50 ratio vs Reference Material; Ex. 12 drug product with rHuPH20, 6 months at 5 C
Excerpt: as §1, §2

[7] = molecular target: T1, recombinant cMet/HGFR with c-terminal …; assay: competitive TR-FRET (Eu-amivantamab/Cy5-c-MET), EC50 ratio vs Reference Material; Ex. 2 Formulation 2 (50 mM histidine), T0, 25 C table
Excerpt: as §1, §2

[8] = molecular target: T1, recombinant cMet/HGFR with c-terminal …; assay: competitive TR-FRET (Eu-amivantamab/Cy5-c-MET), EC50 ratio vs Reference Material; Ex. 2 Formulation 2 (50 mM histidine), 3 months at 25 C
Excerpt: as §1, §2

[9] = molecular target: T2, recombinant human EGFR/ErbB1/HER1 with …; assay: competitive TR-FRET (Eu-amivantamab/Cy5-EGFR), EC50 ratio vs Reference Material; Ex. 3 acetate formulation, 6 months at 25 C, untreated control
Excerpt: as §1, with “EGFR” for “c-MET”, “RM.” for “Reference Material (RM).”
as §2, with “EGFR” for “c-MET”, “EGFR,” for “cMet,”, “human EGFR/ErbB1/HER1” for “cMet/HGFR”, “C-terminal His tag” for “c-terminal His-tag”, “EGFR.” for “c-MET.”, “Eu-labeled” for “Eu labeled”

B1: amivantamab (bispecific antibody, human IgG1, kappa)
heavy 1: not shown
light 1: not shown
heavy 2: not shown
light 2: DIQMTQSPSSVSASVGDRVTITCRASQGISNWLAWFQHKPGKAPKLLIYAASSLLSGVPSRFSGSGSGTDFTLTISSLQPEDFATYYCQQANSFPITFGQGTRLEIKRTVAAPSVFIFPPSDEQLKSGTASVVCLLNNFYPREAKVQWKVDNALQSGNSQESVTEQDSKDSTYSLSSTLTLSKADYEKHKVYACEVTHQGLSSPVTKSFNRGEC
notes: The samples tested were high concentration (160 mg/mL) formulations, fresh or stored or stressed; also called JNJ-61186372; bispecific EGFR-cMet antibody
cMET Binding activity relative to Reference Material (%) [1]: 108% | cMET Binding % activity relative to RM [2]: 94% | EGFR Binding activity relative to Reference Material (%) [3]: 89% | cMET Binding % activity relative to RM [4]: 94% | EGFR Binding % activity relative to RM [5]: 46% | cMET Binding activity relative to Reference Material (%) [6]: 102% | cMET Binding % activity relative to RM [7]: 102% | cMET Binding % activity relative to RM [8]: 89% | EGFR Binding % activity relative to RM [9]: 83%
